From PMC5835112

Target: CsrA (Yersinia pseudotuberculosis, UniProt B1JJ99 1-61)
Assay: analytical SEC; 50 uM CsrA, 25 uM RNA
Conditions: protein: recombinant; tags: His6 (pET28a); chain copies: 2; hairpin (predicted)

Sequence of CsrA (B1JJ99 whole entry): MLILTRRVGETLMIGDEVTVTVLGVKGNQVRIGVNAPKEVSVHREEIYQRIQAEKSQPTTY

CUUUCACUUUCUUAACAUGAUACAGGAGGGCUUAUG (structured_RNA) [urease SD RNA (Pure-CsrA RNA)]: binds.
